How the values were obtained:
[1] = substrate: CC(=O)Oc1ccc([N+](=O)[O-])cc1; assay: spectrophotometric p-nitrophenol release; type: biochemical, Lactiplantibacillus plantarum; settings: 50 mM sodium phosphate, pH 7.0, 30 °C
Source text: (§1) spectrophotometric p-nitrophenol release on LpEst1

[2] = substrate: CCCC(=O)Oc1ccc([N+](=O)[O-])cc1; assay: spectrophotometric p-nitrophenol release; type: biochemical, Lactiplantibacillus plantarum; settings: 50 mM sodium phosphate, pH 7.0, 30 °C
Source text: as §1

B1: LpEst1 (Lactiplantibacillus plantarum) (protein)
chain: MPTINSIQTTVNGVVKIVKPFNNDIAGEQFDPHVLQTLTAFKQPAILENDLAALRSGSLTPAIADPVGDAVTVQSRNITALNRTVSVEWLTPQNVINHTVLVYFHGGAFYGGVPGNNTVLLKLVAAKSHCEILNVDYSLAPEAPAPAGILDGLAIFQYLEQRDAETMITVAGDSAGANVIMAATNLNQQLGSNRINQQLLLYPVTAPNADHAGPLWDLAAFPIIDSQRAILTNYHDLFRQLDSIMTDYYVPENFDSHSPLISPLHQENFTMTPPTTIMVGEFDPFRPQAWAYAQRLAAADTATTFIQYQGLNHAFAPLVDQYWQSQDVAQVMAAALI
notes: homodimer
B1 was tested, and the Km [1] was 380 ± 50 µM, the Vmax [1] was 75 µmol/min/mg and the kcat [1] was 40.4 ± 2 s⁻¹. It also gave a Km [2] of 200 ± 100 µM, a Vmax [2] of 8 µmol/min/mg and a kcat [2] of 4.4 ± 0.3 s⁻¹.

— paper PMC3963902, “Esterase LpEst1 from Lactobacillus plantarum: A Novel and Atypical Member of the αβ Hydrolase Superfamily of Enzymes” (PLoS ONE, 2014)
